Test results taken from the supplement of paper PMC10065799, “High-throughput profiling of sequence recognition by tyrosine kinases and SH2 domains using bacterial peptide display” (eLife, 2023).

Assays:
AncSZ = test: phosphorylation enrichment, bacterial display (enrichment ratio); higher = better substrate or ligand; peptides without Tyr show the background
EPHB1 = EPHB1 (UniProt P54762); test: as above
EPHB2 = EPHB2 (UniProt P29323); test: as above
FGFR1 = FGFR1 (UniProt P11362); test: as above
Sequence of FGFR1 (P11362 whole entry, looked up): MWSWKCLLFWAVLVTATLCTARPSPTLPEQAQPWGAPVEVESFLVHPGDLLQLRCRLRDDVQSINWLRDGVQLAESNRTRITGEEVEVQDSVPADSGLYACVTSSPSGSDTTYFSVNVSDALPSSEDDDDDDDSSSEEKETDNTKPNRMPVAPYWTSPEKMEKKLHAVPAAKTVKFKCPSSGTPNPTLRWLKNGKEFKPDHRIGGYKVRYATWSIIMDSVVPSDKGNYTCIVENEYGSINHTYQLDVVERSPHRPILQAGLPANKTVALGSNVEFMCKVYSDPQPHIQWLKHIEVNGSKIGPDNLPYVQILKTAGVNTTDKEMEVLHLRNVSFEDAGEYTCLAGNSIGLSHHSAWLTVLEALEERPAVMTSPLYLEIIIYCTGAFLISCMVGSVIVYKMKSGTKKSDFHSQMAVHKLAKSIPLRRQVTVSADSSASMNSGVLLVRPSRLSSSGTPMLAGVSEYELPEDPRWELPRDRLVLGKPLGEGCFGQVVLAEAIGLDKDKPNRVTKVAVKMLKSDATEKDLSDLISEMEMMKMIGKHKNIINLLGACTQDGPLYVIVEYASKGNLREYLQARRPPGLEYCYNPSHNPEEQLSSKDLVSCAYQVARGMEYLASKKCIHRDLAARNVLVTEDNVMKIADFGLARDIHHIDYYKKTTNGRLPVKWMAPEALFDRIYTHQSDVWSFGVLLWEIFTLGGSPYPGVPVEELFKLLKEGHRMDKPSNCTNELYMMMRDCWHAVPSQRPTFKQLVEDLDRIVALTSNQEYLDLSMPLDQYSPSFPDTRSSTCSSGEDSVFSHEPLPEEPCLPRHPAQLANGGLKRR

FGFR3 = FGFR3 (UniProt P22607); test: as above
Sequence of FGFR3 (P22607 whole entry, looked up): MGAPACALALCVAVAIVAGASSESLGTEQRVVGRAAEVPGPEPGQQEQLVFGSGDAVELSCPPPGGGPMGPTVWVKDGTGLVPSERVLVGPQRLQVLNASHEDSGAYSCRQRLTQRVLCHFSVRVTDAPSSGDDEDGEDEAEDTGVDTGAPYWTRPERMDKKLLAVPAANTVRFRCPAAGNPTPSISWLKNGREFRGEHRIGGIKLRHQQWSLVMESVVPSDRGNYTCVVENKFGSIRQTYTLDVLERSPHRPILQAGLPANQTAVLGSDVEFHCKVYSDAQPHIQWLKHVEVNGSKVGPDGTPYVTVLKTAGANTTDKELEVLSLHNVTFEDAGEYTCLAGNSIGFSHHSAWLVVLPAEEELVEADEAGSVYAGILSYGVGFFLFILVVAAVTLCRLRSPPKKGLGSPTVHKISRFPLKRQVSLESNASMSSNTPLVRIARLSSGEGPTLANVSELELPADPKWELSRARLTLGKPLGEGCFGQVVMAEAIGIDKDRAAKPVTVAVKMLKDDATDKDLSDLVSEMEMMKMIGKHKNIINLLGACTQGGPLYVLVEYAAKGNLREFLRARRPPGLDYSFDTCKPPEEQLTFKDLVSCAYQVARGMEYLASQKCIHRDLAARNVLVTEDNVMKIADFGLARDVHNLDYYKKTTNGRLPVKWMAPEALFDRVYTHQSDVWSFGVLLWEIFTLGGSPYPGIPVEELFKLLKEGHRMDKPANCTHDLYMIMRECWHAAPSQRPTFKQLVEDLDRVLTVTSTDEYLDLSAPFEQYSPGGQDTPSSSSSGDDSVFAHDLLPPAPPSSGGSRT

Fer (mouse) = test: as above
Fes = Fes (UniProt P07332); test: as above
Sequence of Fes (P07332 whole entry, looked up): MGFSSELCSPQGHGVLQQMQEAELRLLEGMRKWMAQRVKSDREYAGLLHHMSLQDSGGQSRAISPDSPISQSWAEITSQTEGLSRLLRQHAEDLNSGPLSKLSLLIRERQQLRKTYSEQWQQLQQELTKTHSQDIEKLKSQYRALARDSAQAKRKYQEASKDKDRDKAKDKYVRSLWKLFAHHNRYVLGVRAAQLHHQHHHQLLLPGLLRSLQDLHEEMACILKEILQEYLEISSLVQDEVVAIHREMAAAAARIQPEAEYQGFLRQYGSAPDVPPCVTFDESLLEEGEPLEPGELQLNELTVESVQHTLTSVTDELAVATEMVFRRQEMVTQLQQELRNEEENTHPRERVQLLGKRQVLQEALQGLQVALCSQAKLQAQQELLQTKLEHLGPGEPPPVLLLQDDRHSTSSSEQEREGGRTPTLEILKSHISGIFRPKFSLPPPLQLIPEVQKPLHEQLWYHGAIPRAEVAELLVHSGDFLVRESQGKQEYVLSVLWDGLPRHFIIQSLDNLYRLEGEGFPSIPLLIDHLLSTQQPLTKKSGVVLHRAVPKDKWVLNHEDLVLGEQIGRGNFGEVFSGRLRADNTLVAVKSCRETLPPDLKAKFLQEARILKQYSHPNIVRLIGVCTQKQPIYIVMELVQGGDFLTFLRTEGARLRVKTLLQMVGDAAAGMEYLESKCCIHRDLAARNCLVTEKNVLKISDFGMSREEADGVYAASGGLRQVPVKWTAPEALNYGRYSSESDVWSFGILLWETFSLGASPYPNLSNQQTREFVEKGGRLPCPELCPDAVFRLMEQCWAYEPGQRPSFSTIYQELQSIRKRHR

Fyn = Fyn (UniProt P06241); test: as above
Hck = Hck (UniProt P08631); test: as above
Sequence of Hck (P08631 whole entry, looked up): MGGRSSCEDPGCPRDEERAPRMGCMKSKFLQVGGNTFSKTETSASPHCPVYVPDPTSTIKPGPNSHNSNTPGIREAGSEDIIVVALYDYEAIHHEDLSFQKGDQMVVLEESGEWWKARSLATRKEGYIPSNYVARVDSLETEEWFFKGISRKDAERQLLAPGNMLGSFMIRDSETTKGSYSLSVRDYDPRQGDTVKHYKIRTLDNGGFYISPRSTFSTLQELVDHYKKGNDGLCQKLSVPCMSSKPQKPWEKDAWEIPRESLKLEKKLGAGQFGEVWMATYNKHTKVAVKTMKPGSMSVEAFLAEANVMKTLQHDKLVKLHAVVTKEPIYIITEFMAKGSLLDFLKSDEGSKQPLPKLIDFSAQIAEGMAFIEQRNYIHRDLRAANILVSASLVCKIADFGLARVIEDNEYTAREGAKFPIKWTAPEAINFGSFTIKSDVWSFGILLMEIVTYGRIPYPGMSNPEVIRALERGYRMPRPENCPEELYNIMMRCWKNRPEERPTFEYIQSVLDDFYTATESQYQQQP

Jak2 = Jak2 (UniProt O60674); test: as above
Sequence of Jak2 (O60674 whole entry, looked up): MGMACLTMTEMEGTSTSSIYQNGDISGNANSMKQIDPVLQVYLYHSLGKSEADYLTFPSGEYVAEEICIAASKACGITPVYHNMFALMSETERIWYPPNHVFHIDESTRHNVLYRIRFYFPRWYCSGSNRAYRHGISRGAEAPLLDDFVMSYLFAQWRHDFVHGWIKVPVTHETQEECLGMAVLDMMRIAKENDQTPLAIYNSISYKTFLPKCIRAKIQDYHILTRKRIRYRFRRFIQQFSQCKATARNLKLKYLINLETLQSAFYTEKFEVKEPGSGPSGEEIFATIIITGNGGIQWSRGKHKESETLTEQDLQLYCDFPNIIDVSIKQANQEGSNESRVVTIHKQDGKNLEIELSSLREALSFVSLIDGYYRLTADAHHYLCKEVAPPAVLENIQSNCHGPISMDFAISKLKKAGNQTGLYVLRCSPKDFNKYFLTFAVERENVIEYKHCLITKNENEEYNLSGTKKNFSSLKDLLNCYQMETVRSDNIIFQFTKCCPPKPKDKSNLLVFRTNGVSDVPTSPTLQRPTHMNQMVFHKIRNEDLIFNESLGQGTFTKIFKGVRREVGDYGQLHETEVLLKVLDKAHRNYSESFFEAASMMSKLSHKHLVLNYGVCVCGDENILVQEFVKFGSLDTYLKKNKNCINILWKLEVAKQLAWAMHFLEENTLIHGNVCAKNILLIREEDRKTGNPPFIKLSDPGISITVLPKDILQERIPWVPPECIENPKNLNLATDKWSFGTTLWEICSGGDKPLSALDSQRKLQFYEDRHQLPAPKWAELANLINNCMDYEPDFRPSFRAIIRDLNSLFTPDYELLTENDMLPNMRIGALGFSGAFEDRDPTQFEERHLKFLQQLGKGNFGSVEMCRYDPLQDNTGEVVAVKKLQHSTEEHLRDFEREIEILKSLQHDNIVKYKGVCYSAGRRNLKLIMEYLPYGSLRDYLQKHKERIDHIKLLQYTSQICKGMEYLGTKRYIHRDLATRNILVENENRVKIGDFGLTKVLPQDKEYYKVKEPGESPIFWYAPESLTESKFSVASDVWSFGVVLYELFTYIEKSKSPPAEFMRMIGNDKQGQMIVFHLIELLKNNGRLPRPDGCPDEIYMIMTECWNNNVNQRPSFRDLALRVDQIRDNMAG

MERTK = MERTK (UniProt Q12866); test: as above
c-Abl (mouse) = test: as above
c-Src = test: as above
Grb2 SH2 = Grb2 SH2 (UniProt P62993); test: SH2 binding enrichment of the phosphorylated peptide, bacterial display (enrichment ratio); higher = better substrate or ligand; peptides without Tyr show the background
SHP2-C SH2 = test: as above
c-Src SH2 = test: as above
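For SH2 binding enrichment of the phosphorylated peptide, bacterial display in this document: peptide library displayed on the E. coli surface as eCPX fusions, selected cells deep-sequenced, score is each peptide's frequency after selection divided by its frequency in the input.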
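For phosphorylation enrichment, bacterial display in this document: 11-residue human phosphosite peptides and single-mutation variants displayed on the E. coli surface, counted by deep sequencing, each peptide's frequency after selection divided by its frequency in the unselected input library; frequency after pTyr selection over input frequency; kinase dosed for 20-30% of maximal phosphorylation in three min.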

Sequence of EPHB1 (P54762 whole entry, looked up): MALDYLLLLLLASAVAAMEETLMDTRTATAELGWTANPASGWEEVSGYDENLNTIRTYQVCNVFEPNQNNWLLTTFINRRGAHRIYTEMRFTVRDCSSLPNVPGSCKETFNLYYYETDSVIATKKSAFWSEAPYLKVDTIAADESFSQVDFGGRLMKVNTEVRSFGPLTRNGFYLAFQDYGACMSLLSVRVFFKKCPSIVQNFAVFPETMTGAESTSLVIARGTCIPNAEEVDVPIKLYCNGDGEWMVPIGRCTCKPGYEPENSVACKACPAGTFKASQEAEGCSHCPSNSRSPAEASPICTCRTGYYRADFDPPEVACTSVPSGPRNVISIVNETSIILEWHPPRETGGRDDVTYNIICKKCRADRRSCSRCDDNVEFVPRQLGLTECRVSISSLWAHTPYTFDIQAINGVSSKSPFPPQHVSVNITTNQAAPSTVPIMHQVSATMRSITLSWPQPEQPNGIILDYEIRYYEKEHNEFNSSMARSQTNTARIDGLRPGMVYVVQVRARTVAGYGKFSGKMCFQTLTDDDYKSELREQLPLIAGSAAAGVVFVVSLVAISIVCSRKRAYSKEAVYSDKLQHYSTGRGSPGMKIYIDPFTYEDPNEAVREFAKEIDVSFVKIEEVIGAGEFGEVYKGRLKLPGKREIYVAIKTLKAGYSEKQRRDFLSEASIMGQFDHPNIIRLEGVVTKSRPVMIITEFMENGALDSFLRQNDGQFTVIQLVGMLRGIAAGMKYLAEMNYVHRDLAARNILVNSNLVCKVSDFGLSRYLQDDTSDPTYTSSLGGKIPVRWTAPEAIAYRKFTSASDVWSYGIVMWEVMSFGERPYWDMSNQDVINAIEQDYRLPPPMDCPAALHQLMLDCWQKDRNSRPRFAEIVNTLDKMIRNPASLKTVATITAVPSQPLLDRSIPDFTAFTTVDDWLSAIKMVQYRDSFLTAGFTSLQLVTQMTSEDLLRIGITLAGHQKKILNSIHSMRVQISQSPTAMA

| SH2 binding enrichment (Grb2 SH2) | SH2 binding enrichment (SHP2-C SH2) | SH2 binding enrichment (c-Src SH2) | Sequence | phosphorylation enrichment (AncSZ) | phosphorylation enrichment (EPHB1) | phosphorylation enrichment (EPHB2) | phosphorylation enrichment (FGFR1) | phosphorylation enrichment (FGFR3) | phosphorylation enrichment (Fer (mouse)) | phosphorylation enrichment (Fes) | phosphorylation enrichment (Fyn) | phosphorylation enrichment (Hck) | phosphorylation enrichment (Jak2) | phosphorylation enrichment (MERTK) | phosphorylation enrichment (c-Abl (mouse)) | phosphorylation enrichment (c-Src) |
| --- | --- | --- | --- | --- | --- | --- | --- | --- | --- | --- | --- | --- | --- | --- | --- | --- |
| 1.18 | 0.983 | 12.5 | VNCHQYDGLVE [ATP2A2_Y407] | 1.06 | 0.658 | 0.659 | 0.614 | 0.818 | 0.598 | 1.2 | 0.626 | 0.651 | 0.848 | 0.499 | 0.672 | 0.531 |
| 0.758 | 0.435 | 0.47 | DLDFTYIFPNI [PTEN_Y27_L25F_YF] | 3.5 | 0.996 | 0.618 | 2.87 | 2.27 | 0.627 | 1.33 | 4.4 | 1.16 | 1.83 | 1 | 0.8 | 2.15 |
| 1.02 | 0.602 | 0.5 | HNLDFYKKTTN [FGFR3_Y648_YF] | 3.51 | 1.76 | 2.13 | 1.28 | 1.68 | 2.46 | 3.91 | 0.916 | 1.15 | 5.47 | 1.95 | 3.49 | 2.23 |
| 0.826 | 0.913 | 0.542 | RNESFYDTFST [EFCAB3_Y372] | 1.07 | 17.3 | 21 | 0.852 | 0.915 | 13.2 | 1.46 | 16.4 | 14.3 | 0.891 | 15.6 | 2.23 | 10.5 |
| 0.959 | 0.769 | 3.03 | TVETKYDNISR [SETDB2_Y477] | 0.72 | 0.71 | 0.379 | 0.545 | 0.553 | 0.433 | 0.745 | 0.519 | 0.477 | 0.667 | 0.393 | 0.643 | 0.461 |
| 0.897 | 0.915 | 0.594 | RLDPVYFVAPA [LAMC2_Y250] | 1.46 | 5.28 | 4.85 | 6.89 | 5.76 | 0.523 | 0.787 | 11.5 | 8.92 | 1.73 | 5.95 | 1.82 | 7.69 |
| 0.504 | 0.459 | 0.434 | RRKRAYVEIEF [MAK16_Y282_Q277R_YF] | 0.665 | 0.582 | 0.658 | 0.563 | 0.871 | 0.551 | 0.828 | 0.58 | 0.505 | 0.593 | 0.759 | 0.58 | 0.542 |
| 0.807 | 0.729 | 0.511 | REDVFYTSKLW [AKR1C2_Y81_I79V] | 1.52 | 0.759 | 0.631 | 0.742 | 1.05 | 0.422 | 1.45 | 0.89 | 0.802 | 1.41 | 1.3 | 1.25 | 0.662 |
| 0.765 | 0.797 | 2.42 | KLPYLYDDPFS [GPX2_Y127_P126L] | 1.22 | 3.22 | 4.17 | 0.489 | 0.689 | 1.28 | 1.3 | 0.695 | 1.46 | 0.997 | 2.58 | 1.12 | 0.906 |
| 1.19 | 0.83 | 1.16 | NRLTDYYELLL [BBS10_Y536_P539L] | 1.64 | 2.44 | 1.66 | 11.9 | 10.1 | 1.98 | 1.17 | 1.1 | 1.46 | 1.68 | 3.04 | 1.15 | 1.69 |
| 0.557 | 0.764 | 0.398 | SSEYHCVGGFY [CTSC_Y347_Y347C] | 2.32 | 3.8 | 4.66 | 7.73 | 5.2 | 0.64 | 1.45 | 1.76 | 1.72 | 1.37 | 0.775 | 7.61 | 1.82 |
| 1.29 | 0.459 | 0.351 | RAMPVYKKAEH [TP63_Y231] | 0.462 | 0.197 | 0.26 | 0.304 | 0.238 | 0.28 | 0.379 | 0.337 | 0.27 | 0.306 | 0.292 | 0.301 | 0.288 |
| 0.877 | 0.695 | 0.491 | HLWRIYFDITD [MMP27_Y307_YF] | 1.39 | 1.15 | 0.771 | 0.973 | 1.19 | 0.531 | 1.81 | 0.532 | 0.739 | 1.52 | 0.366 | 1.27 | 0.462 |
| 0.503 | 0.318 | 0.336 | PPTFRYERGSR [INPPL1_Y663_YF] | 0.974 | 0.503 | 0.579 | 0.803 | 0.69 | 0.546 | 0.822 | 0.671 | 0.622 | 0.692 | 0.753 | 0.704 | 0.521 |
| 0.687 | 0.554 | 0.385 | AVSEGYKDFRA [CDA_Y79] | 0.602 | 0.386 | 0.456 | 0.519 | 0.542 | 0.341 | 0.689 | 0.441 | 0.452 | 0.553 | 0.449 | 0.602 | 0.338 |
| 1.16 | 0.762 | 0.542 | LVMFTYAIFGM [SCN1A_Y1684_I1683T] | 2.09 | 1.78 | 1.43 | 0.728 | 1.73 | 1.08 | 2.16 | 2.15 | 1.48 | 2.23 | 0.937 | 1.82 | 2.9 |
